Test results taken from PMC11869483.

Target: PcaLOOL12 (loosenin from Phanerochaete carnosa) produced in Pichia pastoris with a C-terminal His6-tag (Phanerochaete carnosa)
Experiment: SEC-SAXS

“PcaLOOL12 (loosenin from Phanerochaete carnosa) produced in Pichia pastoris with a C-terminal His6-tag (natural protein)” was tested, and the stoichiometry N was 2.
